Measured values: paper PMC2850121 (Structure (London, England : 1993), 2010)
Like-named read-outs stand apart in the source and are kept apart here. One block for each molecule: values may come before it.

Legend:
[1] = molecular target: C-terminally biotinylated IL-13Rα1 (UniProt P78552); assay: SPR
[2] = molecular target: C-terminally biotinylated IL-13Rα2 (human) (UniProt Q14627); assay: SPR
[3] = molecular target: T1, Human IL-13 (amino acids 21–132), wild type, fully glycosylated (human, UniProt P35225 35-146, fully glycosylated); assay: ITC
IL-13 F107A (human) = assay: ITC
IL-13 K104A (human) = assay: ITC
[4] = molecular target: T1, Human IL-13 (amino acids 21–132), wild …; assay: ITC; remark: listed apart in the source

Molecule: IL-13 L101A (ligand)
koff [1]: 0.00463 s⁻¹
kon [1]: 3.53e+06 M⁻¹ s⁻¹

Molecule: IL-13 V18A (ligand)
koff [1]: 0.00443 s⁻¹
kon [1]: 3.26e+06 M⁻¹ s⁻¹

Molecule: IL-13 D87A (ligand)
koff [1]: 0.00751 s⁻¹
kon [1]: 2.74e+06 M⁻¹ s⁻¹

Molecule: IL-13 K105A (ligand)
koff [1]: 0.00771 s⁻¹
kon [1]: 1.31e+06 M⁻¹ s⁻¹
koff [2]: 1.06e-05 s⁻¹
kon [2]: 9.16e+06 M⁻¹ s⁻¹

B2: IL-13Rα1 soluble extracellular domain (receptor, UniProt P78552 22-343, looked up)
chain: GGGGAAPTETQPPVTNLSVSVENLCTVIWTWNPPEGASSNCSLWYFSHFGDKQDKKIAPETRRSIEVPLNERICLQVGSQCSTNESEKPSILVEKCISPPEGDPESAVTELQCIWHNLSYMKCSWLPGRNTSPDTNYTLYYWHRSLEKIHQCENIFREGQYFGCSFDLTKVKDSSFEQHSVQIMVKDNAGKIKPSFNIVPLTSRVKPDPPHIKNLSFHNDDLYVQWENPQNFISRCLFYEVEVNNSQTETHNVFYVQEAKCENPEFERNVENTSCFMVPGVLPDTLNTVRIRVKTNKLCYEDDKLWSNWSQEMSIGKKRNST
modifications: fully glycosylated
dH [4]: -11.4 kcal/mol
stoichiometry N [4]: 0.937

Other lines, results leading:

koff [2]: 0.00271 s⁻¹
kon [2]: 9.64e+06 M⁻¹ s⁻¹
Molecule: IL-13 K104A (ligand)

koff [1]: 0.00487 s⁻¹
kon [1]: 1.87e+06 M⁻¹ s⁻¹
Molecule: IL-13 R11A (ligand)

koff [1]: 0.00445 s⁻¹
kon [1]: 2.82e+06 M⁻¹ s⁻¹
Molecule: IL-13 E15A (ligand)

koff [2]: 0.000152 s⁻¹
kon [2]: 1.79e+07 M⁻¹ s⁻¹
Molecule: IL-13 I14A (ligand)

koff [1]: 0.00488 s⁻¹
Molecule: IL-13 T88A (ligand)

koff [2]: 0.000945 s⁻¹
kon [2]: 1.15e+07 M⁻¹ s⁻¹
Molecule: IL-13 F107A (ligand)

dH [3]: -20.1 kcal/mol
stoichiometry N [3]: 0.943
dH (IL-13 F107A (human)): -17.1 kcal/mol
stoichiometry N (IL-13 F107A (human)): 0.949
dH (IL-13 K104A (human)): -20.4 kcal/mol
stoichiometry N (IL-13 K104A (human)): 0.884
dH [4]: -20 kcal/mol
stoichiometry N [4]: 0.98
B1: IL-13Rα2 ectodomain (amino acids 29–331) (receptor, human, UniProt Q14627 29-331, looked up)
chain: EIKVNPPQDFEIVDPGYLGYLYLQWQPPLSLDHFKECTVEYELKYRNIGSETWKTIITKNLHYKDGFDLNKGIEAKIHTLLPWQCTNGSEVQSSWAETTYWISPQGIPETKVQDMDCVYYNWQYLLCSWKPGIGVLLDTNYNLFYWYEGLDHALQCVDYIKADGQNIGCRFPYLEASDYKDFYICVNGSSENKPIRSSYFTFQLQNIVKPLPPVYLTFTRESSCEIKLKWSIPLGPIPARCFDYEIEIREDDTTLVTATVENETYTLKTTNETRQLCFVVRSKVNIYCSDDGIWSEWSDKQCW
modifications: fully glycosylated
